For data set [1], the system named is experimental cerebral hematoma in rats. Nature of the data set: effects on experimental cerebral hematoma in rats. Format: in vivo, SD rats. Further details: key to behavioral score: neurologic defect score, full score 11; higher = more severe disorder. The conditions noted are these: for behavioral score / Brain water content (%): 2 mg/kg bid caudal vein; for behavioral score: full score 11; for Brain water content (%): dry and wet method; for degree of pathological change, remaining cases: 2-3 cases per group. As for the experimental part:
SD rats were randomly divided into 4 groups (8 animals per group), including model group, NHH group, NIF group and TNHH group. The rats in each group were anesthetized by chloral hydrate, and then 0.1 ml blood was collected by amputation of tail. The rats were fixed in a stereotaxic apparatus. Median incision of scalp was performed and the periosteum was cut open to expose bregma. Subsequently, a small hole with a diameter of 1 mm was perforated for needle insertion of microsyringe fixed on the stereotaxic apparatus with insertion depth of 5.8 mm (i.e to the position of caudate nucleus) at the site which was 1 mm rearward to the bregma and 3 mm left to the midline, and then 0.1 ml autoblood was injected slowly. Neurological functional defect score was immediately evaluated based on the evaluation criterion after the animal got conscious. The animal with behavior score less than 11 was selected in this study. Behavior score evaluation was continuously carried out after the establishment of model till the end of the experiment.
The neurologic function defect score was evaluated at 5 time points of 4 h, 12 h, 24 h, 48 h and 72 h after the model establishment. Changes of brain water content and histopathological observation were performed at 72 h after the model establishment on sacrificed rats.
Corresponding medicaments (2 mg/kg, bid) were administered through the caudal vein to animals with administration volume of 1 ml/100 g in each group after model animal was successfully established (according to the score less than 11 based on the behavior score evaluation), while the model group received physiological saline in the corresponding volume.
The brain was taken out immediately after the sacrifice of animals, and then […] ectocinerea (cortex was removed) at the edge of haematoma was collected. The brain water content was determined using dry and wet method based on the following formula: Brain water content=(wet weight−dry weight)/wet weight×100%
The brain was immediately taken out by decollation at selected time points, and it was sliced up to be 2 mm thick along the coronal section and then fixed in 10% formaldehyde. The slices were stained by regular HE and mounted. Then the pathological changes occurred in pathological region and the neighboring brain tissues were observed.
Evaluation was performed at the time of 4 h, 12 h, 24 h, 48 h and 72 h after surgery. The method was described as follows:
The flection of forelimbs was observed by lifting the rat by its tail. If the forelimbs symmetrically extended toward the floor, the score was 0. While if wrist flection, or elbow inflection, or internal rotation of shoulder, or both elbow inflection and internal rotation of shoulder occurred to forelimbs of the rat on the opposite side of the surgery part, it was evaluated as scores of 1, 2, 3 and 4, respectively.
The animal was placed on flat floor, and then both shoulders were pushed to move towards the opposite side to examine the resistance. If the resistances on both sides were equal and forceful, it was evaluated as 0. While if the resistance decreased slightly, mildly or severely when pushed to the opposite side of the surgery part, it was evaluated as 1, 2 or 3, respectively.
Both forelimbs of the animal were placed on a metal mesh to observe the muscular tension. The rat with equal and forceful muscular tension of both forelimbs was evaluated as 0. In the same way, the rat was evaluated as 1, 2 or 3, respectively with the reduction of muscular tension on the opposite side of the surgery part mentioned above.
The animal tended to keep turning around to one side was evaluated as 1. Based on the evaluation criterion (with full score of 11), the higher the score was evaluated, the more severe the behavior disorder was.

Data set [2] deals with leukocyte adhesion. Nature of the data set: anti-leukocyte adhesion activity, in vitro comparative analysis. Format: cell-based. As to conditions: in vitro.
In data set [3] the target is thrombin (Homo sapiens, UniProt P00734). Briefly: antithrombin activity, in vitro comparative analysis. It counts as biochemical. On the set-up: TNHH-G15/n3 and TNHH have the same antithrombin activity.
Data set [4] concerns cerebral ischemia in rats subjected to middle cerebral artery occlusion. Format: in vivo, Wistar rats. The conditions noted are these: for behavioral score / pathological section of brain (cerebral cortex nerve cells): 2 mg/kg bid caudal vein; for behavioral score: full score 11; for pathological section of brain (cerebral cortex nerve cells): HE, compared with model group.
[5] abbreviates: 2 mg/kg bid, brain pathological section.

Entries after “also recorded” stand apart in the source; their conditions may differ. Read-outs that look alike come from different tables or passages of the source.

B1: NIF: Neutrophil inhibitory factor, 257 amino acids; prepared by Chongqing Fujin Biology and Medicine Company (protein)
chain: NEHNLRCPQNGTEMPGFNDSIRLQFLAMHNGYRSKLALGHISITEESESDDDDDFGFLPDFAPRASKMRYLEYDCEAEKSAYMSARNCSDSSSPPEGYDENKYIFENSNNISEAALKAMISWAKEAFNLNKTKEGEGVLYRSNHDISNFANLAWDAREKFGCAVVNCPLGEIDDETNHDGETYATTIHVVCHYPKINKTEGQPIYKVGTPCDDCSEYTKKADNTTSADPVCIPDDGVCFIGSKADYDSKEFYRFREL
Turning to B1, the behavioral score turned out to be 1.86 ± 0.90 in data set [1] (4 h); 2.14 ± 0.90 in data set [1] (12 h); 2.43 ± 0.53 in data set [1] (24 h); 3.14 ± 0.90 in data set [1] (48 h); 4.14 ± 1.68 in data set [1] (72 h); 6.2 ± 0.8 in data set [4] (4 h). In addition, the behavioral score was determined as 6.5 ± 1.2 in data set [4] (8 h), 5.5 ± 0.5 in data set [4] (24 h), 5.5 ± 0.4 in data set [4] (48 h) and 5.5 ± 0.5 in data set [4] (72 h). Besides, the “Brain water content (%)” value in data set [1] (72 h) amounted to 79.36 ± 0.47 %. Moreover, the “degree of pathological change, remaining cases” value in data set [1] (setting [5]) was “+→++”. Also, the “degree of pathological change, most cases” value in data set [1] (2 mg/kg bid, brain pathological section, model group mostly ++→+++) was “±→+”. The same molecule gave an anti-leukocyte adhesion activity in data set [2] of 750 Unit/mg. In data set [3], the antithrombin activity entry is recorded as “None”. In addition, the “pathological section of brain (cerebral cortex nerve cells)” value in data set [4] was “less pathological changes; also recorded: less regular arrangements, a portion of deeply stained nucleus, and some cytoplasmic shrinkage or disappearance”. Moreover, the “Cerebral infarction volume (%)” value in data set [4] (72 h) was determined as 24.9 ± 9.6 %.

B2: NHH: bifunctional chimeric protein NIF-(Gly)5-hirugen, 274 amino acids, of Chinese patent application 031011551; control protein (protein)
chain: NEHNLRCPQNGTEMPGFNDSIRLQFLAMHNGYRSKLALGHISITEESESDDDDDFGFLPDFAPRASKMRYLEYDCEAEKSAYMSARNCSDSSSPPEGYDENKYIFENSNNISEAALKAMISWAKEAFNLNKTKEGEGVLYRSNHDISNFANLAWDAREKFGCAVVNCPLGEIDDETNHDGETYATTIHVVCHYPKINKTEGQPIYKVGTPCDDCSEYTKKADNTTSADPVCIPDDGVCFIGSKADYDSKEFYRFRELGGGGGNGDFEEIPEEYL
With B2, the behavioral score in data set [1] (4 h) was 2.14 ± 0.69; in data set [1] (12 h), 1.86 ± 0.90; in data set [1] (24 h), 2.43 ± 1.00; in data set [1] (48 h), 2.57 ± 0.13; in data set [1] (72 h) it was 3.57 ± 1.72; in data set [4] (4 h) it was 8.2 ± 1.7. Besides, the behavioral score came to 8.2 ± 1.7 in data set [4] (8 h), 8.0 ± 1.4 in data set [4] (24 h), 6.5 ± 1.4 in data set [4] (48 h) and 5.7 ± 1.2 in data set [4] (72 h). In data set [1] (72 h), the “Brain water content (%)” value was determined as 78.66 ± 0.55 %. Besides, the “degree of pathological change, remaining cases” value in data set [1] (setting [5]) is recorded as “+→++”. The molecule also had an anti-leukocyte adhesion activity in data set [2] of 650 Unit/mg. Moreover, the “pathological section of brain (cerebral cortex nerve cells)” value in data set [4] was “less pathological changes; also recorded: less regular arrangements, a portion of deeply stained nucleus, and some cytoplasmic shrinkage or disappearance”. In addition, in data set [4] (72 h), the “Cerebral infarction volume (%)” value amounted to 25.2 ± 5.2 %.

These data come from patent US8361965B2, “Recombinant chimeric protein of neutrophil inhibitory factor and hirugen, and pharmaceutical composition thereof” (Lunan Pharmaceutical Group Corporation, priority 2008, dated 2013).
